Data on 31 molecules can be found in patent US20220089647A1 (FUJIFILM, published 2022).

Test [1] concerns the target T1, human integrin αvβ5 (human, UniProt P06756 31-992; P18084 24-719, limits assumed).
T1 construct: Heterodimer flowed as analyte at 30, 100, 300 and 1,000 nM in HEPES buffer with 5 mM MgCl2
Put plainly: SPR, Biacore 3000, peptide immobilised; B = KD more than 50 nM and 100 nM or less. As to the method:
(§1) However, only for the cyclic peptides 125, 126, and 127, in which the number of lysine residues having an amino group as the immobilizing functional group was zero, the amount of the sample solution to be supplied to the sensor chip was set to 500 μL instead of 20 μL. Further, 70 μL of the mixed aqueous solution of 0.2 M EDC and 0.04 M NHS was added to another flow channel of the same sensor chip without immobilizing the sample, and then blocking treatment and washing treatment were carried out. Hereinafter, the obtained immobilization-treated sensor chip is referred to as an “immobilization-treated sensor chip A”.
(§2) After adding human integrin αvβ5 for 10 minutes at 25° C., which was diluted to 30 nM using a HEPES buffer solution to which magnesium chloride was added to 5 mM, in each flow channel of the immobilization-treated sensor chip A prepared in (1) above, the same HEPES buffer solution (containing 5 mM magnesium chloride) was allowed to flow as a running buffer for 30 minutes, and measurement was carried out with Biacore 3000. Then, a regeneration treatment of removing human integrin αvβ5 was carried out by allowing a 0.5 M EDTA aqueous solution to flow through each flow channel for 10 minutes. Further, the above-described measurement process consisting of adding integrin for 10 minutes, allowing a running buffer to flow for 30 minutes, carrying out measurement with Biacore 3000, and carrying out regeneration treatment with 0.5 M EDTA aqueous solution was carried out in the same manner for 100 nM human integrin αvβ5, 300 nM human integrin αvβ5, and 1,000 nM human integrin αvβ5. Dissociation constant between the cyclic peptide and human integrin αvβ5 was calculated from the difference between the value measured by Biacore 3000 in the flow channel immobilized with the cyclic peptide and the value measured by Biacore 3000 in the flow channel unimmobilized with the cyclic peptide, in a case where each concentration of human integrin αvβ5 was allowed to flow, and the integrin binding property was evaluated according to the following evaluation standards. It is preferable that the evaluation result satisfies the evaluation standard A, B, or C.
For orientation: Surface plasmon resonance follows binding to a sensor surface in real time, without labels.

Test [2] has as its target T1, human integrin αvβ5. Put plainly: SPR, Biacore 3000, peptide immobilised; A = KD 50 nM or less.
Test [3] deals with T1, human integrin αvβ5. Put plainly: SPR, Biacore 3000, peptide immobilised; C = KD more than 100 nM and 200 nM or less. As to the method: as §1, §2

Starred links: 1 amine or outer side, 2 acyl side, 3 side chain; linkers in the order of their positions; H or OH if unused. Positions of bridges follow the written chain, without caps; N, C: chain ends. Non-standard residues stand in square brackets, D forms with d. Primed or numbered codes have the meaning given here. No end group written: not given here. Dab(acetyl)″ = 2-amino-4-(acetylamino)butanoic acid, acetyl CH3 carbon bonded to the S of Hcy (S-CH2-C(=O)-NH-), O=C(C[*:3])NCC[C@H](N[*:1])C(=O)[*:2]; Dab(acetyl) = 2-amino-4-acetylamino-butanoic acid residue (N-γ-acetyl-diaminobutyric acid), CC(=O)NCC[C@H](N[*:1])C(=O)[*:2]; COCH2 = acetyl group that carries the bridge; hCys = N[C@@H](CCS)C(=O)O; Dab = NCC[C@H](N)C(=O)O; Dap = NC[C@H](N)C(=O)O; βAla = NCCC(=O)O A value given as a limit tells only on which side of the number the result lay.

T1 sequence (P06756 31-992 limits assumed, chain 1 of 2): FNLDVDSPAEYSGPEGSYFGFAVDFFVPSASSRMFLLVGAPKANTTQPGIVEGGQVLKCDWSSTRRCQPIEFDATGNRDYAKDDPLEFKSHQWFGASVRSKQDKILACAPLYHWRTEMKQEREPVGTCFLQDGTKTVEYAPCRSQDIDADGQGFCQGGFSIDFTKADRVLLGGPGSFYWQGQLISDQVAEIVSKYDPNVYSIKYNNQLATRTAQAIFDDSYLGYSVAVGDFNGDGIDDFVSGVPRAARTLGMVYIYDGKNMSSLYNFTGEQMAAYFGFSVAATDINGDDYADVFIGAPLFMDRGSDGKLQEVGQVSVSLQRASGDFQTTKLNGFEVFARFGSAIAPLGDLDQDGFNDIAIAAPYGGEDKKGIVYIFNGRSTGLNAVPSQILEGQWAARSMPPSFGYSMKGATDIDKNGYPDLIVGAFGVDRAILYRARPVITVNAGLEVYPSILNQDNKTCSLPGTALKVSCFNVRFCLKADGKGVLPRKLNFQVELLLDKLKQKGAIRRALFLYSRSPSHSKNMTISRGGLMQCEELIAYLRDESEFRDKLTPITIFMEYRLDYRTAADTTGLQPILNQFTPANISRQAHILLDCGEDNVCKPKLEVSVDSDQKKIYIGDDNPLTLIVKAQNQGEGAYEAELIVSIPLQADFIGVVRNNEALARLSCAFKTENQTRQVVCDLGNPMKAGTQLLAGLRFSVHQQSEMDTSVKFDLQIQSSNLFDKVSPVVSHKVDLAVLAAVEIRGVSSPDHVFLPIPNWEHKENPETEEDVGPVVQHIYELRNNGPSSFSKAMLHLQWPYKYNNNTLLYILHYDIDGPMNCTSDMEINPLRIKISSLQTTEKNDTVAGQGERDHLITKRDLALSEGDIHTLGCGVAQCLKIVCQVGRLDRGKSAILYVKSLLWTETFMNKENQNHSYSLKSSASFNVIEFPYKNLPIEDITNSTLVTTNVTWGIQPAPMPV
T1 sequence (P18084 24-719 limits assumed, chain 2 of 2): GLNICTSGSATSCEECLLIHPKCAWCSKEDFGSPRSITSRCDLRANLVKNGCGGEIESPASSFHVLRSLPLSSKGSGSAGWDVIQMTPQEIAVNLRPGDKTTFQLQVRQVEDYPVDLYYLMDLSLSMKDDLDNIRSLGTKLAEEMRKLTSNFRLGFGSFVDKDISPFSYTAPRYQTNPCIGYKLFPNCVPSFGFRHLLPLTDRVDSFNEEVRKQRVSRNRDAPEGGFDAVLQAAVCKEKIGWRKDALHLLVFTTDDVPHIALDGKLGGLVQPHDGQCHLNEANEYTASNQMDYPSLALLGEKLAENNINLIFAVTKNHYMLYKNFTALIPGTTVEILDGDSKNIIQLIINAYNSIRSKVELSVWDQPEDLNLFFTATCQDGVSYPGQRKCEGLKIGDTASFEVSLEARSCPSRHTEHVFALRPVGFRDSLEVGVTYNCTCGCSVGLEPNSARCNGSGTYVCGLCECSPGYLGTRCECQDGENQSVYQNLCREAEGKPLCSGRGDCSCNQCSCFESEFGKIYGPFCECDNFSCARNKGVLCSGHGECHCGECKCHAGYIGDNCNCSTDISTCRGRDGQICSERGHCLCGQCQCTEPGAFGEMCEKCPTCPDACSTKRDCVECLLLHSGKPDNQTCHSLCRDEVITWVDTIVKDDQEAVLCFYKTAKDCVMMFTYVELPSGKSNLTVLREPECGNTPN

B1: Cyclic peptide 8 (peptide)
peptide: KKKGXPRGDNFRXA
modifications: not fully specified; KKKG-(Hcy)-PRGDNFR(Dab(acetyl))A; thioether bond Hcy-Dab(acetyl)
For the molecule B1, the “dissociation constant (KD)” value in test [1] lay in the range of 50 to 100 nM.

KKK[hCys]DPRGDTFA[Dab(acetyl)] (thioether 4-13) [Cyclic peptide 144]: the “dissociation constant (KD)” value in test [2] is at most 50 nM.

Consider KKK[hCys]TTRGDTFA[Dab(acetyl)] (thioether 4-13) [Cyclic peptide 155], for which the “dissociation constant (KD)” value in test [2] was at most 50 nM.

On to KKK[hCys]VTRGDTFA[Dab(acetyl)] (thioether 4-13) [Cyclic peptide 150], for which the “dissociation constant (KD)” value in test [2] is at most 50 nM.

Take KKK[hCys]EPRGDTFA[Dab(acetyl)] (thioether 4-13) [Cyclic peptide 145]: the “dissociation constant (KD)” value in test [2] was at most 50 nM.

As for KKK[hCys]VSRGDTFA[Dab(acetyl)] (thioether 4-13) [Cyclic peptide 149], in test [2], the “dissociation constant (KD)” value was at most 50 nM.

With KKK[hCys]VPRGDVFA[Dab(acetyl)] (thioether 4-13) [Cyclic peptide 151], the “dissociation constant (KD)” value in test [2] is at most 50 nM.

With KKK[hCys]TPRGDTFA[Dab(acetyl)] (thioether 4-13) [Cyclic peptide 147], in test [2], the “dissociation constant (KD)” value was at most 50 nM.

As for KKK[hCys]LPRGDTFA[Dab(acetyl)] (thioether 4-13) [Cyclic peptide 146], the “dissociation constant (KD)” value in test [2] was at most 50 nM.

With KKK[hCys]TTRGDSFA[Dab(acetyl)] (thioether 4-13) [Cyclic peptide 157], the “dissociation constant (KD)” value in test [2] is at most 50 nM.

KKK[hCys]VPRGDTFS[Dab(acetyl)] (thioether 4-13) [Cyclic peptide 153]: the “dissociation constant (KD)” value in test [2] is at most 50 nM.

Take KKK[hCys]YPRGDTFA[Dab(acetyl)] (thioether 4-13) [Cyclic peptide 148]: the “dissociation constant (KD)” value in test [2] was at most 50 nM.

In the case of KKK[hCys]VPRGDTFG[Dab(acetyl)] (thioether 4-13) [Cyclic peptide 152], the “dissociation constant (KD)” value in test [2] is at most 50 nM.

Turning to KKK[Dab(acetyl)]VPRGDNFC (thioether 4-12) [Cyclic peptide 143], the “dissociation constant (KD)” value in test [2] was at most 50 nM.

B2: Cyclic peptide 51 (peptide)
peptide: KKK[βAla][hCys]EPRGDNYR[Dab(acetyl)″]-NH2
modifications: thioether 5-14; N-terminus assumed
SMILES: N=C(N)NCCC[C@@H]1NC(=O)[C@H](Cc2ccc(O)cc2)NC(=O)[C@H](CC(N)=O)NC(=O)[C@H](CC(=O)O)NC(=O)CNC(=O)[C@H](CCCNC(=N)N)NC(=O)[C@@H]2CCCN2C(=O)[C@H](CCC(=O)O)NC(=O)[C@@H](NC(=O)CCNC(=O)[C@H](CCCCN)NC(=O)[C@H](CCCCN)NC(=O)[C@@H](N)CCCCN)CCSCC(=O)NCC[C@@H](C(N)=O)NC1=O
As for B2, the “dissociation constant (KD)” value in test [3] lay within 100 to 200 nM.

In the case of KKKA[hCys]IPRGDSFA[Dab](COCH2) (thioether 5-14) [Cyclic peptide 162], the “dissociation constant (KD)” value in test [2] is at most 50 nM.

Take KKKA[Dab(acetyl)]VPRGDTFACA (thioether 5-14) [Cyclic peptide 142]: the “dissociation constant (KD)” value in test [2] is at most 50 nM.

Take KKKA[Dap](COCH2)EPRGDNYRC (thioether 5-14) [Cyclic peptide 166]: the “dissociation constant (KD)” value in test [2] is at most 50 nM.

As for KKKG[hCys]IPRGDNF[Dab(acetyl)″]A (thioether 5-13) [Cyclic peptide 6], the “dissociation constant (KD)” value in test [1] is 50 to 100 nM.

KKKA[hCys]TPRGDTFA[Dab](COCH2)A (thioether 5-14) [Cyclic peptide 160]: in test [2], the “dissociation constant (KD)” value was at most 50 nM.

B3: Cyclic peptide 50 (peptide)
peptide: KKKA[hCys]EPRGDNYR[Dab(acetyl)″]-NH2
modifications: thioether 5-14; N-terminus assumed
SMILES: C[C@H](NC(=O)[C@H](CCCCN)NC(=O)[C@H](CCCCN)NC(=O)[C@@H](N)CCCCN)C(=O)N[C@H]1CCSCC(=O)NCC[C@@H](C(N)=O)NC(=O)[C@H](CCCNC(=N)N)NC(=O)[C@H](Cc2ccc(O)cc2)NC(=O)[C@H](CC(N)=O)NC(=O)[C@H](CC(=O)O)NC(=O)CNC(=O)[C@H](CCCNC(=N)N)NC(=O)[C@@H]2CCCN2C(=O)[C@H](CCC(=O)O)NC1=O
As to B3, in test [3], the “dissociation constant (KD)” value was 100 to 200 nM.

Turning to KKK[hCys]TPRGDTFA[Dab](COCH2)A (thioether 4-13) [Cyclic peptide 159], in test [2], the “dissociation constant (KD)” value is at most 50 nM.

Regarding KKK[hCys]VPRGDTFA[Dab](COCH2)A (thioether 4-13) [Cyclic peptide 165], the “dissociation constant (KD)” value in test [2] was at most 50 nM.

B4: Cyclic peptide 73 (peptide)
peptide: KKKGXIPRGDXFRXA
modifications: not fully specified; KKKG-(Hcy)-IPRGD-(HmS)-FR(Dab(acetyl))A; HmS = homoserine; thioether bond Hcy-Dab(acetyl)
As for B4, the dissociation constant in test [1] was 50 to 100 nM.

Consider KKK[hCys]IPRGDSFA[Dab](COCH2)A (thioether 4-13) [Cyclic peptide 163], for which the “dissociation constant (KD)” value in test [2] is at most 50 nM.

On to KKK[Dab(acetyl)]VPRGDTFAC (thioether 4-13) [Cyclic peptide 141], for which the “dissociation constant (KD)” value in test [2] is at most 50 nM.

Take KKKA[hCys]EPRGDSYR[Dab](COCH2)D (thioether 5-14) [Cyclic peptide 33]: the “dissociation constant (KD)” value in test [3] was 100 to 200 nM.

On to KKKA[hCys]EPRGDNYD[Dab](COCH2)D (thioether 5-14) [Cyclic peptide 35], for which the “dissociation constant (KD)” value in test [3] is 100 to 200 nM.

Consider KKKA[hCys]TPRGDTFA[Dab(acetyl)] (thioether 5-14) [Cyclic peptide 158], for which, in test [2], the “dissociation constant (KD)” value was at most 50 nM.

On to KKKA[hCys]VPRGDTFA[Dab](COCH2) (thioether 5-14) [Cyclic peptide 164], for which the “dissociation constant (KD)” value in test [2] is at most 50 nM.

Regarding KKK[hCys]PRGDNFR[Dab(acetyl)]A (thioether 4-12) [Cyclic peptide 9], the “dissociation constant (KD)” value in test [3] lay within 100 to 200 nM.
